Legend:
[1] = biological target: Rep K28A (Escherichia coli, UniProt P09980 1-673, K28A); test: SPR; 200 uM ATP, dissociation not stimulated; SPR: 25 mM Tris-HCl pH 7.6, 50 mM NaCl, 5 mM MgCl2, 0.25 mM DTT, 0.2 mM EDTA, 0.005% P20, 20 C; single-molecule: 25 mM Tris-HCl pH 7.9, 10 mM Mg acetate, 50 mM; settings: protein: recombinant; tags: His6; chain copies: 2; single strand
[2] = biological target: T1, Rep WT (Escherichia coli, UniProt P09980 1-673); test: SPR; no nucleotide, 5 mM Mg2+; 20 nM Rep; kon 1.03e6 M-1 s-1, koff 2.15e-4 s-1; SPR: 25 mM Tris-HCl pH 7.6, 50 mM NaCl, 5 mM MgCl2, 0.25 mM DTT, 0.2 mM EDTA, 0.005% P20, 20 C; single-molecule: 25 mM Tris-HCl pH 7.9, 10 mM Mg acetate, 50 mM; settings: protein: recombinant; chain copies: 2; single strand
[3] = biological target: T1, Rep WT; test: SPR; no nucleotide, 5 mM Mg2+; kon 1.22e7 M-1 s-1, koff 5.91e-3 s-1; SPR: 25 mM Tris-HCl pH 7.6, 50 mM NaCl, 5 mM MgCl2, 0.25 mM DTT, 0.2 mM EDTA, 0.005% P20, 20 C; single-molecule: 25 mM Tris-HCl pH 7.9, 10 mM Mg acetate, 50 mM; settings: protein: recombinant; chain copies: 2; single strand

For TTTTTTTTTTTTTTTTTTTTTTTTTTTTTTTTTTT (ssDNA, 3'-biotin) [3'-bio-dT35], the binding result [1] was “binds” and the Kd [2] was 0.2 nM.

In the case of TTTTTTTTTTTTTTT (ssDNA, 3'-biotin) [3'-bio-dT15], the Kd [3] is reported as 0.5 nM.

From article PMC10123100, “Single-molecule visualization of stalled replication-fork rescue by the Escherichia coli Rep helicase”
